Reference: US20240158455A1, “MULTIPLE SCLEROSIS ASSOCIATED AUTOANTIGENS, AND USE THEREOF IN THERAPY AND DIAGNOSIS” (NEOGAP Therapeutics AB, priority 2017, published 2024)

biological target: HLA DRB5 01:01; experiment: competitive HLA binding assay (legend: - No binding)

Row | Binder | binding result
1 | GRRMHHTCPCLPGLA (also called Pool 3 PROK2) [PROK2 peptide #18 (Aa 100-114 of SEQ ID NO: 2)] | no binding
2 | SQCGGGMCCAVSIWV (also called Pool 1 PROK2) [PROK2 peptide #3 (Aa 38-52 of SEQ ID NO: 2)] | no binding
3 | KLGDSCHPLTRKNNF (also called Pool 2 PROK2) [PROK2 peptide #8 (Aa 63-77 of SEQ ID NO: 2)] | no binding
4 | GNGRQERRKRKRSKR (also called Pool 2 PROK2) [PROK2 peptide #11 (Aa 78-92 of SEQ ID NO: 2)] | no binding
5 | TFKNTEISFQLGEEF (also called Pool 2 FABP7) [FABP7 peptide #12 (Aa 57-71 of SEQ ID NO: 1)] | no binding
6 | EISFQLGEEFDETTA (also called Pool 3 FABP7) [FABP7 peptide #13 (Aa 62-76 of SEQ ID NO: 1)] | no binding
7 | IRTLSTFKNTEISFQ (also called Pool 2 FABP7) [FABP7 peptide #11 (Aa 52-66 of SEQ ID NO: 1)] | no binding

The next lines start with the values.

Row | binding result | Binder
8 | no binding | HTCPCLPGLACLRTS (also called Pool 3 PROK2) [PROK2 peptide #19 (Aa 105-119 of SEQ ID NO: 2)]
9 | no binding | LGEEFDETTADDRNC (also called Pool 3 FABP7) [FABP7 peptide #14 (Aa 67-81 of SEQ ID NO: 1)]
10 | no binding | ACDKDSQCGGGMCCA (also called Pool 1 PROK2) [PROK2 peptide #2 (Aa 33-47 of SEQ ID NO: 2)]
11 | no binding | CTPMGKLGDSCHPLT (also called Pool 1 PROK2) [PROK2 peptide #7 (Aa 58-72 of SEQ ID NO: 2)]
12 | no binding | IISQEGDKVVIRTLS (also called Pool 2 FABP7) [FABP7 peptide #9 (Aa 42-56 of SEQ ID NO: 1)]
13 | no binding | ERRKRKRSKRKKEVP (also called Pool 2 PROK2) [PROK2 peptide #12 (Aa 83-97 of SEQ ID NO: 2)]
14 | no binding | KRSKRKKEVPFFGRR (also called Pool 2 PROK2) [PROK2 peptide #13 (Aa 88-102 of SEQ ID NO: 2)]
15 | no binding | TKPTVIISQEGDKVV (also called Pool 2 FABP7) [FABP7 peptide #8 (Aa 37-51 of SEQ ID NO: 1)]
16 | no binding | QVGNVTKPTVIISQE (also called Pool 2 FABP7) [FABP7 peptide #7 (Aa 32-46 of SEQ ID NO: 1)]
